Assay results taken from IntAct's records for PubMed 20051244.

B1: Octaprenyl diphosphate synthase (Escherichia coli (strain K12)), P0AD57 (parent)
chain: MNLEKINELTAQDMAGVNAAILEQLNSDVQLINQLGYYIVSGGGKRIRPMIAVLAARAVGYEGNAHVTIAALIEFIHTATLLHDDVVDESDMRRGKATANAAFGNAASVLVGDFIYTRAFQMMTSLGSLKVLEVMSEAVNVIAEGEVLQLMNVNDPDITEENYMRVIYSKTARLFEAAAQCSGILAGCTPEEEKGLQDYGRYLGTAFQLIDDLLDYNADGEQLGKNVGDDLNEGKPTLPLLHAMHHGTPEQAQMIRTAIEQGNGRHLLEPVLEAMNACGSLEWTRQRAEEEADKAIAALQVLPDTPWREALIGLAHIAVQRDR
partner: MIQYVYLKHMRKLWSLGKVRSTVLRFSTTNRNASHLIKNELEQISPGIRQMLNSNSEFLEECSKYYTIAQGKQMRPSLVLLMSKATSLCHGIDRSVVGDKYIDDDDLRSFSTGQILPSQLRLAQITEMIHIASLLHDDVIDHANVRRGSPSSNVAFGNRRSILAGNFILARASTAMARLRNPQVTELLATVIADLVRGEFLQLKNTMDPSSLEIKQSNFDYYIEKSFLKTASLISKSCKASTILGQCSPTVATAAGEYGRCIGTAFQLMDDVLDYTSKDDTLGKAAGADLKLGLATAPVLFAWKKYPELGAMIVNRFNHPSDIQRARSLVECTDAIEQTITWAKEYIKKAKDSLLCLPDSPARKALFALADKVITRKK
B2: Octaprenyl diphosphate synthase (Escherichia coli (strain K12)), P0AD57 (parent)
chain: B1 chain
partner: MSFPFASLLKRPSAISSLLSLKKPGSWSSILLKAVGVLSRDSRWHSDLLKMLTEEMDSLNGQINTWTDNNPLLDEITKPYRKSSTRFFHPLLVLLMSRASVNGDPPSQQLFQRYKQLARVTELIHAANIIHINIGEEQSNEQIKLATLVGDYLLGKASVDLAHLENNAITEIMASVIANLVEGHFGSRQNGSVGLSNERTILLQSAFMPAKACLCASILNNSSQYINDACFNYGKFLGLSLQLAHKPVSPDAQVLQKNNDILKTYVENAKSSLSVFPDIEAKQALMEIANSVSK

Variants of: B1
Conditions: with dps1_schpo dps1, O43091

Variant	effect of a mutation on the interaction
R321A	increasing interaction

Variants of: B2
Conditions: with dlp1_schpo dlp1, O13851

Variant	effect of a mutation on the interaction
R321A	decreasing interaction
